The results in this text go back to IntAct's records for PubMed 30126976.

To fix the notation:
B1: Rho guanine nucleotide exchange factor 16 (Homo sapiens), Q5VV41 (parent)
chain: MAQRHSDSSLEEKLLGHRFHSELRLDAGGNPASGLPMVRGSPRVRDDAAFQPQVPAPPQPRPPGHEEPWPIVLSTESPAALKLGTQQLIPKSLAVASKAKTPARHQSFGAAVLSREAARRDPKLLPAPSFSLDDMDVDKDPGGMLRRNLRNQSYRAAMKGLGKPGGQGDAIQLSPKLQALAEEPSQPHTRSPAKNKKTLGRKRGHKGSFKDDPQLYQEIQERGLNTSQESDDDILDESSSPEGTQKVDATIVVKSYRPAQVTWSQLPEVVELGILDQLSTEERKRQEAMFEILTSEFSYQHSLSILVEEFLQSKELRATVTQMEHHHLFSNILDVLGASQRFFEDLEQRHKAQVLVEDISDILEEHAEKHFHPYIAYCSNEVYQQRTLQKLISSNAAFREALREIERRPACGGLPMLSFLILPMQRVTRLPLLMDTLCLKTQGHSERYKAASRALKAISKLVRQCNEGAHRMERMEQMYTLHTQLDFSKVKSLPLISASRWLLKRGELFLVEETGLFRKIASRPTCYLFLFNDVLVVTKKKSEESYMVQDYAQMNHIQVEKIEPSELPLPGGGNRSSSVPHPFQVTLLRNSEGRQEQLLLSSDSASDRARWIVALTHSERQWQGLSSKGDLPQVEITKAFFAKQADEVTLQQADVVLVLQQEDGWLYGERLRDGETGWFPEDFARFITSRVAVEGNVRRMERLRVETDV
B2: 5-hydroxytryptamine receptor 2C (Homo sapiens), P28335 (parent)
chain: MVNLRNAVHSFLVHLIGLLVWQSDISVSPVAAIVTDIFNTSDGGRFKFPDGVQNWPALSIVIIIIMTIGGNILVIMAVSMEKKLHNATNYFLMSLAIADMLVGLLVMPLSLLAILYDYVWPLPRYLCPVWISLDVLFSTASIMHLCAISLDRYVAIRNPIEHSRFNSRTKAIMKIAIVWAISIGVSVPIPVIGLRDEEKVFVNNTTCVLNDPNFVLIGSFVAFFIPLTIMVITYCLTIYVLRRQALMLLHGHTEEPPGLSLDFLKCCKRNTAEEENSANPNQDQNARRRKKKERRPRGTMQAINNERKASKVLGIVFFVFLIMWCPFFITNILSVLCEKSCNQKLMEKLLNVFVWIGYVCSGINPLVYTLFNKIYRRAFSNYLRCNYKVEKKPPVRQIPRVAATALSGRELNVNIYRHTNEPVIEKASDNEPGIEMQVENLELPVNPSSVVSERISSV
B3: A-kinase anchor protein 1, mitochondrial (Homo sapiens), Q92667 (parent)
chain: MAIQFRSLFPLALPGMLALLGWWWFFSRKKGHVSSHDEQQVEAGAVQLRADPAIKEPLPVEDVCPKVVSTPPSVTEPPEKELSTVSKLPAEPPALLQTHPPCRRSESSGILPNTTDMRLRPGTRRDDSTKLELALTGGEAKSIPLECPLSSPKGVLFSSKSAEVCKQDSPFSRVPRKVQPGYPVVPAEKRSSGERARETGGAEGTGDAVLGEKVLEEALLSREHVLELENSKGPSLASLEGEEDKGKSSSSQVVGPVQEEEYVAEKLPSRFIESAHTELAKDDAAPAPPVADAKAQDRGVEGELGNEESLDRNEEGLDRNEEGLDRNEESLDRNEEGLDRNEEIKRAAFQIISQVISEATEQVLATTVGKVAGRVCQASQLQGQKEESCVPVHQKTVLGPDTAEPATAEAAVAPPDAGLPLPGLPAEGSPPPKTYVSCLKSLLSSPTKDSKPNISAHHISLASCLALTTPSEELPDRAGILVEDATCVTCMSDSSQSVPLVASPGHCSDSFSTSGLEDSCTETSSSPRDKAITPPLPESTVPFSNGVLKGELSDLGAEDGWTMDAEADHSGGSDRNSMDSVDSCCSLKKTESFQNAQAGSNPKKVDLIIWEIEVPKHLVGRLIGKQGRYVSFLKQTSGAKIYISTLPYTQSVQICHIEGSQHHVDKALNLIGKKFKELNLTNIYAPPLPSLALPSLPMTSWLMLPDGITVEVIVVNQVNAGHLFVQQHTHPTFHALRSLDQQMYLCYSQPGIPTLPTPVEITVICAAPGADGAWWRAQVVASYEETNEVEIRYVDYGGYKRVKVDVLRQIRSDFVTLPFQGAEVLLDSVMPLSDDDQFSPEADAAMSEMTGNTALLAQVTSYSPTGLPLIQLWSVVGDEVVLINRSLVERGLAQWVDSYYTSL
B4: Sodium bicarbonate cotransporter 3 (Homo sapiens), Q9Y6M7 (parent)
chain: MERFRLEKKLPGPDEEAVVDLGKTSSTVNTKFEKEELESHRAVYIGVHVPFSKESRRRHRHRGHKHHHRRRKDKESDKEDGRESPSYDTPSQRVQFILGTEDDDEEHIPHDLFTEMDELCYRDGEEYEWKETARWLKFEEDVEDGGDRWSKPYVATLSLHSLFELRSCILNGTVMLDMRASTLDEIADMVLDNMIASGQLDESIRENVREALLKRHHHQNEKRFTSRIPLVRSFADIGKKHSDPHLLERNGEGLSASRHSLRTGLSASNLSLRGESPLSLLLGHLLPSSRAGTPAGSRCTTPVPTPQNSPPSSPSISRLTSRSSQESQRQAPELLVSPASDDIPTVVIHPPEEDLEAALKGEEQKNEENVDLTPGILASPQSAPGNLDNSKSGEIKGNGSGGSRENSTVDFSKVDMNFMRKIPTGAEASNVLVGEVDFLERPIIAFVRLAPAVLLTGLTEVPVPTRFLFLLLGPAGKAPQYHEIGRSIATLMTDEIFHDVAYKAKDRNDLLSGIDEFLDQVTVLPPGEWDPSIRIEPPKSVPSQEKRKIPVFHNGSTPTLGETPKEAAHHAGPELQRTGRLFGGLILDIKRKAPFFLSDFKDALSLQCLASILFLYCACMSPVITFGGLLGEATEGRISAIESLFGASLTGIAYSLFAGQPLTILGSTGPVLVFEKILYKFCRDYQLSYLSLRTSIGLWTSFLCIVLVATDASSLVCYITRFTEEAFAALICIIFIYEALEKLFDLGETYAFNMHNNLDKLTSYSCVCTEPPNPSNETLAQWKKDNITAHNISWRNLTVSECKKLRGVFLGSACGHHGPYIPDVLFWCVILFFTTFFLSSFLKQFKTKRYFPTKVRSTISDFAVFLTIVIMVTIDYLVGVPSPKLHVPEKFEPTHPERGWIISPLGDNPWWTLLIAAIPALLCTILIFMDQQITAVIINRKEHKLKKGAGYHLDLLMVGVMLGVCSVMGLPWFVAATVLSISHVNSLKVESECSAPGEQPKFLGIREQRVTGLMIFILMGLSVFMTSVLKFIPMPVLYGVFLYMGVSSLKGIQLFDRIKLFGMPAKHQPDLIYLRYVPLWKVHIFTVIQLTCLVLLWVIKVSAAAVVFPMMVLALVFVRKLMDLCFTKRELSWLDDLMPESKKKKEDDKKKKEKEEAERMLQDDDDTVHLPFEGGSLLQIPVKALKYSPDKPVSVKISFEDEPRKKYVDAETSL
B5: Inward rectifier potassium channel 4 (Homo sapiens), P48050 (parent)
chain: MHGHSRNGQAHVPRRKRRNRFVKKNGQCNVYFANLSNKSQRYMADIFTTCVDTRWRYMLMIFSAAFLVSWLFFGLLFWCIAFFHGDLEASPGVPAAGGPAAGGGGAAPVAPKPCIMHVNGFLGAFLFSVETQTTIGYGFRCVTEECPLAVIAVVVQSIVGCVIDSFMIGTIMAKMARPKKRAQTLLFSHHAVISVRDGKLCLMWRVGNLRKSHIVEAHVRAQLIKPYMTQEGEYLPLDQRDLNVGYDIGLDRIFLVSPIIIVHEIDEDSPLYGMGKEELESEDFEIVVILEGMVEATAMTTQARSSYLASEILWGHRFEPVVFEEKSHYKVDYSRFHKTYEVAGTPCCSARELQESKITVLPAPPPPPSAFCYENELALMSQEEEEMEEEAAAAAAVAAGLGLEAGSKEEAGIIRMLEFGSHLDLERMQASLPLDNISYRRESAI
B6: Monocarboxylate transporter 4 (Homo sapiens), O15427 (parent)
chain: MGGAVVDEGPTGVKAPDGGWGWAVLFGCFVITGFSYAFPKAVSVFFKELIQEFGIGYSDTAWISSILLAMLYGTGPLCSVCVNRFGCRPVMLVGGLFASLGMVAASFCRSIIQVYLTTGVITGLGLALNFQPSLIMLNRYFSKRRPMANGLAAAGSPVFLCALSPLGQLLQDRYGWRGGFLILGGLLLNCCVCAALMRPLVVTAQPGSGPPRPSRRLLDLSVFRDRGFVLYAVAASVMVLGLFVPPVFVVSYAKDLGVPDTKAAFLLTILGFIDIFARPAAGFVAGLGKVRPYSVYLFSFSMFFNGLADLAGSTAGDYGGLVVFCIFFGISYGMVGALQFEVLMAIVGTHKFSSAIGLVLLMEAVAVLVGPPSGGKLLDATHVYMYVFILAGAEVLTSSLILLLGNFFCIRKKPKEPQPEVAAAEEEKLHKPPADSGVDLREVEHFLKAEPEKNGEVVHTPETSV
B7: Ecotropic viral integration site 5 protein homolog (Homo sapiens), O60447 (parent)
chain: MVTNKMTAAFRNPSGKQVATDKVAEKLSSTLSWVKNTVSHTVSQMASQVASPSTSLHTTSSSTTLSTPALSPSSPSQLSPDDLELLAKLEEQNRLLETDSKSLRSVNGSRRNSGSSLVSSSSASSNLSHLEEDSWILWGRIVNEWEDVRKKKEKQVKELVHKGIPHHFRAIVWQLLCSAQSMPIKDQYSELLKMTSPCEKLIRRDIARTYPEHNFFKEKDSLGQEVLFNVMKAYSLVDREVGYCQGSAFIVGLLLMQMPEEEAFCVFVKLMQDYRLRELFKPSMAELGLCMYQFECMIQEHLPELFVHFQSQSFHTSMYASSWFLTIFLTTFPLPIATRIFDIFMSEGLEIVFRVGLALLQMNQAELMQLDMEGMLQHFQKVIPHQFDGVPDKLIQAAYQVKYNSKKMKKLEKEYTTIKTKEMEEQVEIKRLRTENRLLKQRIETLEKHKCSSNYNEDFVLQLEKELVQARLSEAESQCALKEMQDKVLDIEKRNNSLPDENNIARLQEELIAVKLREAEAIMGLKELRQQVKDLEEHWQRHLARTTGRWKDPPKKNAMNELQDELMTIRLREAETQAEIREIKQRMMEMETQNQINSNHLRRAEQEVISLQEKVQYLSAQNKGLLTQLSEAKRKQAEIECKNKEEVMAVRLREADSIAAVAELRQHIAELEIQKEEGKLQGQLNKSDSNQYIGELKDQIAELNHELRCLKGQRGFSGQPPFDGIHIVNHLIGDDESFHSSDEDFIDNSLQETGVGFPLHGKSGSMSLDPAVADGSESETEDSVLETRESNQVVQKERPPRRRESYSTTV

The variants in one test derive from B1. As to conditions: with scrib_human SCRIB.
For the variant T707E, the “effect of a mutation on the interaction” value is given as “disrupting interaction strength”.

The next test covers variants of B1. The settings on record: with dlg1_human DLG1, Q12959.
Turning to T707E, the “effect of a mutation on the interaction” value was “disrupting interaction strength”.

Variants of B2 are the subject of another test. The settings on record: with dlg1_human DLG1, Q12959.
As to MVNLRNAVHSFLVHLIGLLVWQSDISVSPVAAIVTDIFNTSDGGRFKFPDGVQNWPALSIVIIIIMTIGGNILVIMAVSMEKKLHNATNYFLMSLAIADMLVGLLVMPLSLLAILYDYVWPLPRYLCPVWISLDVLFSTASIMHLCAISLDRYVAIRNPIEHSRFNSRTKAIMKIAIVWAISIGVSVPIPVIGLRDEEKVFVNNTTCVLNDPNFVLIGSFVAFFIPLTIMVITYCLTIYVLRRQALMLLHGHTEEPPGLSLDFLKCCKRNTAEEENSANPNQDQNARRRKKKERRPRGTMQAINNERKASKVLGIVFFVFLIMWCPFFITNILSVLCEKSCNQKLMEKLLNVFVWIGYVCSGINPLVYTLFNKIYRRAFSNYLRCNYKVEKKPPVRQIPRVAATALSGRELNVNIYRHTNEPVIEKASDNEPGIEMQVENLELPVNPSSVVSERISEV [S457E], the “effect of a mutation on the interaction” value was “with no effect”.

The variants in another test derive from B3. As to conditions: with scrib_human SCRIB.
Regarding S902E, the “effect of a mutation on the interaction” value is reported as “increasing interaction strength”.

The next test covers variants of B4. The settings on record: with scrib_human SCRIB.
Turning to S1213E, the “effect of a mutation on the interaction” value was “with no effect”.

In the next test the parent is B5. As to conditions: with scrib_human SCRIB.
For MHGHSRNGQAHVPRRKRRNRFVKKNGQCNVYFANLSNKSQRYMADIFTTCVDTRWRYMLMIFSAAFLVSWLFFGLLFWCIAFFHGDLEASPGVPAAGGPAAGGGGAAPVAPKPCIMHVNGFLGAFLFSVETQTTIGYGFRCVTEECPLAVIAVVVQSIVGCVIDSFMIGTIMAKMARPKKRAQTLLFSHHAVISVRDGKLCLMWRVGNLRKSHIVEAHVRAQLIKPYMTQEGEYLPLDQRDLNVGYDIGLDRIFLVSPIIIVHEIDEDSPLYGMGKEELESEDFEIVVILEGMVEATAMTTQARSSYLASEILWGHRFEPVVFEEKSHYKVDYSRFHKTYEVAGTPCCSARELQESKITVLPAPPPPPSAFCYENELALMSQEEEEMEEEAAAAAAVAAGLGLEAGSKEEAGIIRMLEFGSHLDLERMQASLPLDNISYRREEAI [S443E], the “effect of a mutation on the interaction” value was “disrupting interaction strength”.

In another test the parent is B6. The settings on record: with scrib_human SCRIB.
Regarding MGGAVVDEGPTGVKAPDGGWGWAVLFGCFVITGFSYAFPKAVSVFFKELIQEFGIGYSDTAWISSILLAMLYGTGPLCSVCVNRFGCRPVMLVGGLFASLGMVAASFCRSIIQVYLTTGVITGLGLALNFQPSLIMLNRYFSKRRPMANGLAAAGSPVFLCALSPLGQLLQDRYGWRGGFLILGGLLLNCCVCAALMRPLVVTAQPGSGPPRPSRRLLDLSVFRDRGFVLYAVAASVMVLGLFVPPVFVVSYAKDLGVPDTKAAFLLTILGFIDIFARPAAGFVAGLGKVRPYSVYLFSFSMFFNGLADLAGSTAGDYGGLVVFCIFFGISYGMVGALQFEVLMAIVGTHKFSSAIGLVLLMEAVAVLVGPPSGGKLLDATHVYMYVFILAGAEVLTSSLILLLGNFFCIRKKPKEPQPEVAAAEEEKLHKPPADSGVDLREVEHFLKAEPEKNGEVVHTPETEV [S464E], the “effect of a mutation on the interaction” value is “with no effect”.

Variants of B7 are the subject of the next test. The settings on record: with dlg1_human DLG1, Q12959.
Regarding S805E, the “effect of a mutation on the interaction” value was “decreasing interaction strength”.
